Measured values: patent publication US20230364254A1, “METHODS FOR TREATING CANCERS WITH ANTIBODY DRUG CONJUGATES (ADC) THAT BIND TO 191P4D12 PROTEINS” (priority 2020, published 2023)

System: patients with locally advanced or metastatic urothelial cancer
Test: Same phase 2 study: safety (adverse events, NCI CTCAE v4.03)
Assay type: in vivo, human
Conditions: Cohort 2 (N = 89)
From the text: Safety assessments will be based on the information collected through the safety surveillance process and will include the data from recorded adverse events (AEs) including SAEs, recording of concomitant medication, physical examination findings, cardiac monitoring, and laboratory tests.
The assessment of safety during the course of this study will consist of the surveillance and recording of AEs including SAEs, recording of concomitant medication, and measurements of protocol-specified physical examination findings, cardiac monitoring, and laboratory tests.
AE severity should be graded using the National Cancer Institute's Common Terminology Criteria for Adverse Events (NCI CTCAE), Version 4.03. These criteria are provided in the study manual.
An overview of AEs will provide a tabulation of the incidence of all AEs, treatment-emergent AEs, treatment-related AEs, Grade 3 and higher AEs. SAEs, treatment-related SAEs, deaths, and AEs leading to study treatment discontinuation. Adverse events will be defined as treatment emergent if they are newly occurring or worsened following study treatment.
AEs will be classified by system organ class and preferred tem using the Medical Dictionary for Regulatory Activities (MedDRA) and graded using NCI CTCAE, Version 4.03.
The incidence of AEs will be summarized by system organ class, preferred term, severity and relationship to study drug. In the event of multiple occurrences of the same AE in one patient, the AE will be counted once as the occurrence for the maximum grade. AEs leading to premature discontinuation of study drug will be summarized and listed in the same manner.

Q: For “enfortumab vedotin: Nectin-4 directed ADC: fully human anti-nectin-4 IgG1 kappa antibody (AGS-22C3) conjugated to MMAE via protease-cleavable maleimidocaproyl valine-citrulline linker”, which “AE of special interest, All Grade: Ocular Events, Blurred Vision” value is on record?
A: 9 (10.1) N (%)

Q: What about the “AE of special interest, All Grade: Ocular Events, Corneal Disorders” value of the same substance?
A: 5 (5.6) N (%)

Q: And the “AE of special interest, All Grade: Ocular Events, Dry Eye Disorders” value?
A: 27 (30.3) N (%)

Q: What about the “AE of special interest, All Grade: Peripheral Neuropathy” value of the same substance?
A: 51 (58.4) N (%)

Q: What about the “AE of special interest, All Grade: Rash” value of the same substance?
A: 59 (66.3) N (%)

Q: What about the “AE of special interest, ≥Gr 3: Hyperglycemia” value of the same substance?
A: 8 (9) N (%)

Q: What about the “AE of special interest, ≥Gr 3: IRR” value of the same substance?
A: 1 (1.1) N (%)

Q: What about the “AE of special interest, ≥Gr 3: Peripheral Neuropathy” value of the same substance?
A: 7 (7.9) N (%)

Q: What about the “AE of special interest, ≥Gr 3: Rash” value of the same substance?
A: 15 (16.9) N (%)

Q: What about the “Any TEAEs” value of the same substance?
A: 89 (100.0) n (%)

Q: And the “Any TEAEs leading to death” value?
A: 8 (9.0) n (%)

Q: What about the “Any TEAEs leading to treatment discontinuation” value of the same substance?
A: 18 (20.2) n (%)

Q: And the “Any grade 3-5 TEAEs” value?
A: 62 (69.7) n (%)

Q: And the “Any serious TEAEs” value?
A: 35 (39.3) n (%)

Q: And the “SAEs (All): Acute kidney injury” value?
A: 9 (10.1) n (%)

Q: And the “SAEs (All): Diarrhoea” value?
A: 3 (3.4) n (%)

Q: What about the “SAEs (All): Febrile neutropenia” value of the same substance?
A: 1 (1.1) n (%)

Q: What about the “SAEs (All): Nausea” value of the same substance?
A: 2 (2.2) n (%)

Q: What about the “SAEs (All): Overall” value of the same substance?
A: 35 (39.3) n (%)

Q: What about the “SAEs (All): Pneumonia” value of the same substance?
A: 3 (3.4) n (%)

Q: And the “SAEs (All): Sepsis” value?
A: 4 (4.5) n (%)

Q: And the “SAEs (All): Urinary tract infection” value?
A: 3 (3.4) n (%)

Q: And the “SAEs (Related): Acute kidney injury” value?
A: 3 (3.4) n (%)

Q: And the “SAEs (Related): Diarrhoea” value?
A: 2 (2.2) n (%)

Q: And the “SAEs (Related): Febrile neutropenia” value?
A: 1 (1.1) n (%)

Q: What about the “SAEs (Related): Nausea” value of the same substance?
A: 1 (1.1) n (%)

Q: And the “SAEs (Related): Overall” value?
A: 15 (16.9) n (%)

Q: What about the “SAEs (Related): Pneumonia” value of the same substance?
A: 1 (1.1) n (%)

Q: And the “Treatment-related AE leading to discontinuation: Acute kidney injury” value?
A: 2 (2.2) n (%)

Q: What about the “Treatment-related AE leading to discontinuation: Dermatitis bullous” value of the same substance?
A: 1 (1.1) n (%)

Q: And the “Treatment-related AE leading to discontinuation: Lipase increased” value?
A: 2 (2.2) n (%)

Q: What about the “Treatment-related AE leading to discontinuation: Metabolic acidosis” value of the same substance?
A: 1 (1.1) n (%)

Q: What about the “Treatment-related AE leading to discontinuation: Multiple organ dysfunction syndrome” value of the same substance?
A: 1 (1.1) n (%)

Q: And the “Treatment-related AE leading to discontinuation: Muscular weakness” value?
A: 1 (1.1) n (%)

Q: What about the “Treatment-related AE leading to discontinuation: Overall” value of the same substance?
A: 14 (15.7) n (%)

Q: And the “Treatment-related AE leading to discontinuation: Peripheral motor neuropathy” value?
A: 1 (1.1) n (%)

Q: And the “Treatment-related AE leading to discontinuation: Peripheral sensory neuropathy” value?
A: 4 (4.5) n (%)

Q: And the “Treatment-related AE leading to discontinuation: Pneumonitis” value?
A: 1 (1.1) n (%)

Q: And the “Treatment-related TEAEs” value?
A: 86 (96.6) n (%)

Q: And the “Treatment-related TEAEs (all grades): Alopecia” value?
A: 45 (50.6) n (%)

Q: What about the “Treatment-related TEAEs (all grades): Anaemia” value of the same substance?
A: 22 (24.7) n (%)

Q: What about the “Treatment-related TEAEs (all grades): Aspartate aminotransferase increased” value of the same substance?
A: 7 (7.9) n (%)

Q: And the “Treatment-related TEAEs (all grades): Decreased appetite” value?
A: 29 (32.6) n (%)

Q: What about the “Treatment-related TEAEs (all grades): Diarrhoea” value of the same substance?
A: 20 (22.5) n (%)

Q: What about the “Treatment-related TEAEs (all grades): Dry eye” value of the same substance?
A: 11 (12.4) n (%)

Q: And the “Treatment-related TEAEs (all grades): Dry skin” value?
A: 16 (18.0) n (%)

Q: What about the “Treatment-related TEAEs (all grades): Dysgeusia” value of the same substance?
A: 24 (27.0) n (%)

Q: What about the “Treatment-related TEAEs (all grades): Fatigue” value of the same substance?
A: 30 (33.7) n (%)

Q: And the “Treatment-related TEAEs (all grades): Lacrimation increased” value?
A: 9 (10.1) n (%)

Q: What about the “Treatment-related TEAEs (all grades): Nausea” value of the same substance?
A: 20 (22.5) n (%)

Q: What about the “Treatment-related TEAEs (all grades): Neutropenia” value of the same substance?
A: 11 (12.4) n (%)

Q: What about the “Treatment-related TEAEs (all grades): Oedema peripheral” value of the same substance?
A: 10 (11.2) n (%)

Q: What about the “Treatment-related TEAEs (all grades): Overall” value of the same substance?
A: 86 (96.6) n (%)

Q: And the “Treatment-related TEAEs (all grades): Peripheral sensory neuropathy” value?
A: 42 (47.2) n (%)

Q: What about the “Treatment-related TEAEs (all grades): Pruritus” value of the same substance?
A: 27 (30.3) n (%)

Q: What about the “Treatment-related TEAEs (all grades): Rash maculo-papular” value of the same substance?
A: 27 (30.3) n (%)

Q: What about the “Treatment-related TEAEs (all grades): Vomiting” value of the same substance?
A: 7 (7.9) n (%)

Q: And the “Treatment-related TEAEs (all grades): Weight decreased” value?
A: 23 (25.8) n (%)

Q: And the “Treatment-related TEAEs leading to death” value?
A: 3 (3.4) n (%)

Q: What about the “Treatment-related TEAEs leading to treatment discontinuation” value of the same substance?
A: 14 (15.7) n (%)

Q: What about the “Treatment-related TEAEs ≥Grade 3: Acute kidney injury” value of the same substance?
A: 4 (4.5) n (%)

Q: What about the “Treatment-related TEAEs ≥Grade 3: Amylase increased” value of the same substance?
A: 3 (3.4) n (%)

Q: What about the “Treatment-related TEAEs ≥Grade 3: Anaemia” value of the same substance?
A: 5 (5.6) n (%)

Q: What about the “Treatment-related TEAEs ≥Grade 3: Aspartate aminotransferase increased” value of the same substance?
A: 2 (2.2) n (%)

Q: And the “Treatment-related TEAEs ≥Grade 3: Decreased appetite” value?
A: 5 (5.6) n (%)

Q: And the “Treatment-related TEAEs ≥Grade 3: Diarrhoea” value?
A: 5 (5.6) n (%)

Q: What about the “Treatment-related TEAEs ≥Grade 3: Fatigue” value of the same substance?
A: 6 (6.7) n (%)

Q: And the “Treatment-related TEAEs ≥Grade 3: Febrile neutropenia” value?
A: 1 (1.1) n (%)

Q: What about the “Treatment-related TEAEs ≥Grade 3: Hyperglycaemia” value of the same substance?
A: 5 (5.6) n (%)

Q: What about the “Treatment-related TEAEs ≥Grade 3: Hyponatraemia” value of the same substance?
A: 3 (3.4) n (%)

Q: And the “Treatment-related TEAEs ≥Grade 3: Lipase increased” value?
A: 5 (5.6) n (%)

Q: What about the “Treatment-related TEAEs ≥Grade 3: Neutropenia” value of the same substance?
A: 8 (9.0) n (%)

Q: What about the “Treatment-related TEAEs ≥Grade 3: Neutrophil count decreased” value of the same substance?
A: 3 (3.4) n (%)

Q: And the “Treatment-related TEAEs ≥Grade 3: Overall” value?
A: 49 (55.1) n (%)

Q: And the “Treatment-related TEAEs ≥Grade 3: Peripheral sensory neuropathy” value?
A: 3 (3.4) n (%)

Q: And the “Treatment-related TEAEs ≥Grade 3: Pruritus” value?
A: 3 (3.4) n (%)

Q: What about the “Treatment-related TEAEs ≥Grade 3: Rash erythematous” value of the same substance?
A: 2 (2.2) n (%)

Q: And the “Treatment-related TEAEs ≥Grade 3: Rash maculo-papular” value?
A: 7 (7.9) n (%)

Q: And the “Treatment-related grade 3-5 TEAEs” value?
A: 49 (55.1) n (%)

Q: And the “Treatment-related serious TEAEs” value?
A: 15 (16.9) n (%)

Q: And the “TRAEs, Any Grade: Alopecia” value (additional 3 months follow-up)?
A: 45 (51) n (%)

Q: What about the “TRAEs, Any Grade: Anemia” value (additional 3 months follow-up) of the same substance?
A: 22 (25) n (%)

Q: And the “TRAEs, Any Grade: Decreased appetite” value (additional 3 months follow-up)?
A: 29 (33) n (%)

Q: And the “TRAEs, Any Grade: Diarrhea” value (additional 3 months follow-up)?
A: 20 (22) n (%)

Q: And the “TRAEs, Any Grade: Dysgeusia” value (additional 3 months follow-up)?
A: 25 (28) n (%)

Q: And the “TRAEs, Any Grade: Fatigue” value (additional 3 months follow-up)?
A: 30 (34) n (%)

Q: What about the “TRAEs, Any Grade: Hyperglycemia” value (additional 3 months follow-up) of the same substance?
A: 8 (9) n (%)

Q: And the “TRAEs, Any Grade: Lipase increased” value (additional 3 months follow-up)?
A: 7 (8) n (%)

Q: What about the “TRAEs, Any Grade: Nausea” value (additional 3 months follow-up) of the same substance?
A: 20 (22) n (%)
